# Experimental data taken from the DeepSol protein solubility set.
# Test: soluble on expression in E. coli; label from the status in PepcDB or PDB records
row,Sequence,soluble on expression in E. coli
1,MSDALLAPLNEAQRQAVLHFEGPALVVAGAGSGKTRTVVHRVAYLVARRGVFPSEILAVTFTNKAAEEMRERLRGLVPGAGEVWVSTFHAAALRILRVYGERVGLRPGFVVYDEDDQTALLKEVLKELALSARPGPIKALLDRAKNRGVGLKALLGELPEYYAGLSRGRLGDVLVRYQEALKAQGALDFGDILLYALRLLEEDEEVLRLVRKRARFIHVDEYQDTSPVQYRFTRLLAGEEANLMAVGDPDQGIYSFRAADIKNILDFTRDYPEARVYRLEENYRSTEAILRFANAVIVKNALRLEKALRPVKRGGEPVRLYRAEDAREEARFVAEEIARLGPPWDRYAVLYRTNAQSRLLEQALAGRGIPARVVGGVGFFERAEVKDLLAYARLALNPLDAVSLKRVLNTPPRGIGPATWARVQLLAQEKGLPPWEALKEAARTFSRPEPLRHFVALVEELQDLVFGPAEAFFRHLLEATDYPAYLREAYPEDAEDRLENVEELLRAAKEAEDLQDFLDRVALTAKAEEPAEAEGRVALMTLHNAKGLEFPVVFLVGVEEGLLPHRNSVSTLEGLEEERRLFYVGITRAQERLYLSHAEEREVYGRREPARPSRFLEEVEEGLYEVYDPYRRPPSPPPHRPRPGAFRGGERVVHPRFGPGTVVAAQGDEVTVHFEGFGLKRLSLKYAELKPA,soluble
2,AIAPTATYAALIHADLDVLWGLLLDKLQSDEQFMPGLERAEIVPLSVAEDPTGVARFRQQHDRRLYFSDGRLVEERVTIDEERKNILLELRNDARYTGYVSTVLLPCPFPEATSGAHVLVRTMDWRAKRSLTDDEIEEGELLATKIRESTLRLKHEVESLRWSLDDSKDPDDE,soluble
3,MESIFHEKQEGSLCAQHCLNNLLQGEYFSPVELSSIAHQLDEEERMRMAEGGVTSEDYRTFLQQPSGNMDDSGFFSIQVISNALKVWGLELILFNSPEYQRLRIDPINERSFICNYKEHWFTVRKLGKQWFNLNSLLTGPELISDTYLALFLAQLQQEGYSIFVVKGDLPDCEADQLLQMIR,soluble
4,MAHHHHHHMDFQNRVGHKTGSGMPLSREDINQERRERLKQLALENIDITKDPYILKNNVGMFECKLCLTLHNNESSYLCHTQGKKHQMNLAQRLLKEKNEMTTNRLNKPVSEPRKIVKIGKPRYDVTRVRNKKNQLGILFELSFPNIKENTKPKFRFMSSFEQKIEAPDKKYQYLLFAAEPYETIAFKIPNIDIDENEGFYYKWFDKKKIFVMQIHFQNAFPPGHVNLREHSNFLSSTNRW,not soluble
5,MGSDKIHHHHHHMKNLFLFCRAGYEKECAAEIQQRAAEMNVGGFVKTTNNDAYVIYQCFEDDGADTLAKMLPLNSLIFARQMFAASELHSDLPEQDRVGPLVASLLEADVTKCGELRVETPDTNEAKELSAFCRKFTVPLRQGLKKVGVLLDKENGRRPIIHVCFVGPGKAYVGYSLSNNSSPHFMGIPRLRMAADAPSRSSLKLDEAFGAFLTKEEQEMRCRSGLKAVDLGACPGGWTYQLVRRGMMVAAVDNGPMDEKLMETGQVKHYRADGFRFEPPRKNIYWLVCDMVEKPSRVAELMEAWAINGWFKEAIFNLKLPMKSRYKEVRVILDTMGEIFKENEIDYRLQCKHLYHDRDEVTVHLWIFPEKGVSYAEMG,not soluble
6,MALKKHNVFVFSSNYTLYGDMSQRVMNTLAEFTPEIEVYSIDESFLNFEGFELLGDLKIYGTTIRNTVFRNTGIPVSIGIAPTKALAKLSNRIAKKNKEYNHVCVLEHHHHHH,not soluble
7,MSLPQPKKDKPDTPLRSDAQRNRERILAVATEELTHCANAPLSAIAKKAGVGQGTFYRNFPNREALVLEIYRYGMQQVAEAAPEMLATGEPDLALRQWMDRLAEFAMTKAGLADAIRLVTSAPGAPEKPRPTPLEDAAELLLRANHEAGTIRPGVTGDDFFLVLGGLWLIDPGENWQPRVTRFLDLVMDGLRAGAPGREGHHHHHH,soluble
8,MSLKITRIEAIPYAIPYSRPLKFASGEVSTAEHVLVRIHTDAGICGVADTPPRPYTYGETQDSIVSVVTKVFAPQLIGMDPMDRSKVQQLLGRTVNNPTAKGALDIALWDVIGISLGTPVHKLLGGFSDSMRVSHMLGFKAAAELLEEALRFRETYGIDTFKLKVGRRPLSLDVEACHVLREGLGADTEIYLDANRGWTANEAMEVLRRTEGLGLSMLEEPCDAAEAMGRRRLVQHSSIPIVGDESVPNLGDVSRELLSGGSNAICIKTARSGFTEAQQILGLCEGLGVDVTMGNQIDTQVGSLATVTFGAAFEASSRRAGELSNYLDMTDDLLAEPLEITDGAIRVRKAPGVGAAIDADKLQKYREGHHHHHH,soluble
9,MGSDKIHHHHHHARRNVLRKTWMNPENSEIIKDGRMKALFLVGMTDGDDSRMRKVVMEEARIYGDMVVVDLKDTYEELPFKSLTTLLYGTSKASEFKLIGKIDEDIMFFPDKILPLLEQNLIDPSSESIYGMLFAEGGYVYRDKEHRWFVPDSTYGCDMFPPYTGGLFYLVTQDAAKKILNATKHRIFIPIEDALINGILANDCKIPRIHLPEIYGDHHSLTDEDTRGVLAWHTGKNDQQFLDYFYRKLSESRLKKKILDEKNKHLFY,not soluble
10,GMNNLYHLKVRCSSLHKIIGEPKSKADKEAGKLTDTAKSAVREMAKFDLFGYNAFEGNKYTQKGNELEEQAIKLSGVTRGLALKKNTERRENEFITGECDIYVPSRKLIIDTKCSWDIGSHPFFTDEAQEKAKKAGYDIQMQGYMWLWDCDQAQIDFVLFPTPLNLISAYDSDFKLIDLVEQIPQIRRITTVIIQRDNELIDKIKERVSAAQKYYDQLISEMS,soluble
11,MGSDKIHHHHHHMTESEKQKLGKTLWAIADQLRGAMNADDFRDYMLAFLFLRYLSDNYEAAAQKELGTDYPDLPSDVLRQTGVNTPLQAWYEENLDDVSEFEKQMRRKVHYVIEPQYLWGNIAEMARTQDDELLHTLQKGFKYIEEESFASTFRGLFSEINLASDKLGKTYTERNARLCKIIAEIAKGLGQFSTDSDTLGDAYEYLIGQFAAGSGKKAGEFYTPQRISDILSAIVTLDSQEPATGKRSHLDSVFDFACGSGSLLLNVRRLMGPHGIGKIYGQEKNITTYNLARMNMLLHGVKDSEFEIFHGDTLLNEWDMLRETNPAKMPKFDAVVANPPFSYRWEPSEALGEDVRFKNYGLAPKSAADFAFLLHGFHFLKQDGVMAIILPHGVLFRGGAEARIRTKLLKDGHIDTVIGLPANLFFSTGIPVCILVLKKCKKPDDVLFINAAEHFERGKRQNQLLPEHIDKIIDTYRYRKEEPRYSRRVSMEEIEKNDFNLNISRYVSTAITEEEVDLNAVIGQLKAIEQEIYQAKSKHNEFLKELGLPLLP,not soluble
12,MRKTFRQPHALAAMVIAMLMAQLSGCATTSAQTSPTEFGAGLPEAEDHSESAEPQSVEAEVIDERYADVWEKIQHARTIDVHDDAEVRKQRNFFDDKQKFMTQVTQRAEPFLYYIVSQLEARNMPLELALLPIVESGYNPLAQANGPAGLWQMIPATGRNFGLTINSAYDGRKDALASTDAVLDYLQHLYNTLGNDWINAVAGYNSGELVIKAAIDRNKAKGKPTDFWSLNIPARQVQTVPKWLAFIQIIREPSHYNLKVMPIANRPFLERLPAPNGVEISQIANAAGLTKAEFKTYNPGYRQSVIPSKGKYQIALPIENIGHYQENQHKLYAQKRYDSQTYIVKSGDSLGTIAAKFDLSVKELKQANNLTSDRLKIGQELTLLTPMAANDNEPEPVKTKANTDKSSTKANASSTKATSSKSTDKPVAKAKTYKVKSGDSLDKIARKSKVKLADLMKWNQLNAKSIIKPGQELKISELEHHHHHH,soluble
13,MARRNYQVERNKLEEKDPTWLMQKGQIQPLVSSLVVLNVEGERILARYTAKELFPTFDVEKKFEADLLKKSQTIPDLEENTGVFEHGQHIVVCRASEDLLFFVTSRIYENEVILSEVLTCWVDSLVKVLKNLPLNELNLLQHYEVLLLLVDELVDQEGVIMETDANELSSRTEFAMYSTDPRDLIPELTEQGFSHALQTAKQHLARTILK,not soluble
14,MAQMYFYYSAMNAGKSTTLLQSSFNYQERGMTPVIFTAALDDRYGVGKVSSRIGLQSDAHLFRPDTNLYQEIAALHEVEKRHCILIDECQFLSKEQVYQLTEVVDKLHIPVLCYGLRTDFLGELFEGSKYLLSWADKLVELKTICHCGRKANMVIRTDEHGVAIKEGDQVAIGGNDRYVSVCRQHYKEALGKLEHHHHHH,soluble
15,MDKMVSYLFKGEVKNPYVFLVLGKDKEIEHTVRTDVIVVGVLDWKKGNLSFVSIPRDLMIEGKKINAIYNTYGMEKLFQIIESLLGQKPDSYVIFNYEAFKILVDELGPIEVIPNEVMFYEDLSQNLVIDFKPGVPYKLNGEQLLAYIRYRKDSMGDLARIERQKDVLKKLLSKALSRNPLEISVLYKKISPYIETDIGLPEILTLFSKLKNSVRVSFSTLPYNVDSDGSIFVDEKRLVSFKENLIGSSVQEKYRVNFLVVNTSSLVSRVFEANLRGVWKDRVGFEPDRVVWEDVGISQKFEGDHVFIGEPEKEDYILEILRKAHPSRHFTVHRFDRPEDYTMYYTILESLAKNRIYPDFPVSALILIDDFRELEHHHHHH,soluble
16,MLTGLFFGSFNPMHIGHLALANYLTEYTPIGQLWFVPSPLNPLKNTQELLPYDLRCELIEQAIRKDIRFQVLRIEELLPSPHYTIRTLRALSMLYPHHRFALLIGADNWQSFDRWKDHHRLMAKYELIIYPRFGYEVDDTTLPTGCRYIHDAPRIEISSTQIRTSILEGKDLRYWLPLPESQDVIASALQSCLSPKR,not soluble
17,MAISVFDMFKIGIGPSSSHTVGPMRAGALFVTELRNQNRLHSVERIEVRLYGSLSATGIGHGSDRATVMGLMGEWPDQIDPSQVNQRIDALRADNQLMLAGEQAITFVWERDMCLLDESLPYHPNGMTLCAYGKTGEVHEQTYYSVGGGFVIDAEQAASGV,not soluble
18,MRGSHHHHHHGSIWEWKEAHFQDAFSSFQAMYAKSYATEEEKQRRYAIFKNNLVYIHTHNQQGYSYSLKMNHFGDLSRDEFRRKYLGFKKSRNLKSHHLGVATELL,soluble
19,MAHHHHHHMSAEQQRLKKMHCEAVTLAEMKQWLGLPLTTAASSSSAAPAAAAVAAAPKSPVEEAVGRDVYDMYGLSMTAVDAYLLRYLRSKNLVIEDAVAKLRRRRAFERTLPMISVTTTTVAALRSGAFHLLDHDLEGRPVLYINVATFTLPTLELDEAQRLLIILLEFMQARCLLKNNEKVAAMQRRRRQHVDATAAASSFANGGRENNGGAAAPAHGAQDVDKETVSDLQEFALLVNEERVPWMMHASFLKNYSTLLSILPKYYPLLLGSVLVLGASLEIRTAIKACVGSSSEDVRNSVQMIEKADLPRYMDASTIPVELGGHKQIVGSAMNFSETVLRHWFTLTSQIEDECVGSDGGIADSKVPTTISAAGAANGHREDGGGAETSHSPPRPLYVPPPPLGMTQRHISRQRHAVELQHLSSSVVGTITGPGSPGPMRPCKYGGSSARNGKHSLMSSAAAANRSTAVTTPHGTPTSQKDQAAATVTLGAGRAEDVTDDGVCSALSGADERDDYAENEGGGAGMHTRTNSGVPTYQLYTAASSLAGSLAVEGEMHLSGLGASHNRHHQGASLYSVASATISREEAAHFADHPDDAVVALRQERRRRQRAEQALYFRDLGVTLDMRNASIIEKELAAIHQDLNVLVAEILVKAEAARKRQKAPPTLKQLLDLTLTAFESVTCTPSSVPAMALAEPAQREAASSSCCSFM,not soluble
20,MGSDKIHHHHHHENLYFQGMTLSITSNFDAGAIDVVSCERADAIRLRVRGDNRSEFAQWFYFRLTGARGERCVMTFENANDCAYPAGWRDYRAVASYDRVNWFRVPTSYDGQMLTIDHTPEFDSIHYAYFEPYSEERHSEFLGAVQQMPQASVVELGRTVEGRPMSLVVLGTPDEAGAAKKKVWIIARQHPGESMAEWFIEGLVKRLVGWGDWSGDPVARKLYDHATFYIVPNMNPDGSVHGNLRTNAAGANLNREWMEPDAERSPEVLVVRDAIHAIGCDLFFDIHGDEDLPYVFAAGSEMLPGFTEQQRVEQSAFIDSFKRASPDFQDEHGYPPGKYREDAFKLASKYIGHRFGCLSLTLEMPFKDNANLPDEHIGWNGARSASLGAAMLGAILEHVRAFA,soluble
